Assay results as given in the DeepSol protein solubility set.

Assay: soluble on expression in E. coli; label from the status in PepcDB or PDB records

Sequence | soluble on expression in E. coli
MSLAIIPGVEQKPMSSNLESRIDQGTGREPADMVLKGGRFFDLVTGELVASDIAICGDTVVGTCGDYKGRHEIDISGKIVVPGFIDTHLHIESSLVTPHEFDRCVLPYGVTTAICDPHEIANVLGAEGLQFFLDSAMETIMDIRVQLSSCVPATHLETSGADLPIEKLLPFRNHPKVIGLAEFMNFPGVIHKDPVCMAKLEAFQGQHIDGHAPLLSGAALNGYLAAGIRTEHECTSAAEALEKIRKGMHILVREGSVSKDLHALMPIITERLSPYLALCTDDRNPLDIAEQGHLDYMIRTAIASGVEPLAIYRAASISAAKAFGLRDRGLVAPGWRADLVVIDTLQNCKASMVLSGGRLVDDALFATRKPVAPVGLDSVKARPVLASHFGVPVTEGETPVMGVLPGKIITEHRRYKLPTDGNQTTVDLENDIIKVAVIERHGKNGNHANGFVQGFGLKKGAIASTVGHDSHNICVVGVSEDDMALAANRLGDIKGGFVVVEDGRVTGEIALPVAGLMSLEPYETVRDTLHTLRKAAYALGTTLEEPFLQVAFLPLPVIPHLKISDMGMVDVDRFALIEGHHHHHH | soluble
MSLAIQMTTKTTYQWPQSKDIYPYRPGRFDAPKHWRYNLRSFLNRGSIRRFEQFINQHPFLIDIFNTHLDYSYPVACRFLDKRFNASQRFHAVCENLLFLPEKLTALSTPLWEKPLSFGEVIPDFEMTLSMTTHQPMEGYWVLELWHKPRNELVYLLTFAKLGDALLIAVVQGPNFEGSKEMVKQLTKLCHGLRPAYLMVETMKSLTKILGYNKLLGIPQKYQNKSRFIQSKQYTVDYDAIFGESGGELKDYWELPLEMDRNLDDIPSKKRSMYRKRYAMLDDLAKVIEEKLGLEGHHHHHH | not soluble
MSLAKKILVTGAGGYIGRHVVSALLDAGQDVIASDLRLDGVDERATKVQANIFEPNDNLFEELGAPDVCLHMAWRDGFKHNSDNHMGDLSNHYRFLKHMLDSGLKQIAVMGTMHEVGYWEGAIDENTPCHPASMYGIAKNALREATLMLAKEYDATAQWIRAYYIVGDDAHGNSIFSKLLQAANDGKATFPFTTGKNKYDFIDVDELARQISAVVSQDAVDGVINCCTGEPMTLAERVERYIKENDLNIKLDYGAFPDRPYDSPGVWGDASKINKIMKEGHHHHHH | soluble
MSLAKRIKIDNASSKFRRQSQKREQKVIRCSVLIVCEGTKTEPNYFEAFAEKQQGVIVYDIEVKGLGRGTKDVVEKAIDLKNKNNYDRVWAVFDRDEFPAKDFNEAIAMGQKNSIEVAWSNEAFELWYLYHFQNVITGVSRKDYEEKISTAVNASPKYKSKKKYRYAKKDPNNYKIMTTYGSMESALRYAEAKHLEYADSRYANQNPCTTIYQLVRQLLGRDEKLNAELIARIGENEGHHHHHH | soluble
MSLALFYGRKITVAGISKRGSETALEISEKLSEKGLAVKCYSRSNLKGCNTYIGSTQNFVLSEVRKSDVLVLVMSLGGAVRIIEKASILKEEGIAVIVVDDYGRYAIPIVNGHSGSANVFARLISELIGSEYIITDAVELNGLMSVEEMSRRLYCTIANPECVLKINTALANGDPVFARNESSKRKHAFEMIKYPWKTYSRSDDAKIIITDRPGEGGEICYLVPDDISVGIGFTGKADPYNIKKRIEEVLLSLGLGYDDVNCVSSLRYNKFLSELIKDNGTEFRTFSADDLKSVDVSLLSHISEEAEEKLGIPGSAEPSALLSLGPGSRIIYPFTKFDHSMTISVASRREGHHHHHH | soluble
MSLALIVQKFGGSSVGSVERIQAVAQRVYKTVKAGNSLVVVVSAMGKTTDGLVKLANEISRNPNRREMDMLLSTGEQVTIALLSMALQELGQPAISMTGAQVGIVTEAEHTRARILHIETERVEGHIKEGKVVVVAGFQGISSNGSLEITTLGRGGSDTSAVALAAALQADFCEIYTDVPGILTTDPRIVPEAQLMGEITCNEMLELASLGAKVLHPRAVEIARNYGMPLVVKSSWTDDPGTWVTTPKPQGRSLINLELARPVDDVELDTDQAKVALLRVPDKPGVAAKLFGEISRQKVDVDLIIQSIHEGNSNDIAFTVTTPILKRAEAVAAAIAPSLRSPSHPKSDEAEVMVEQNIAKVSIAGAGMIGRPGVAAQMFATLAEAGVNIQMISTSEVKVSCVIDAQDGDRAIIALRKAFEIETPLHSQLPTPSSLSTHNSPPVRGVALDLNQARLAIRQVPDRPGMAAQLFGILSQHNISVDMIIQSQRCRIVDGVPRRDIAFTVPRMDGETAQKLLCQVAPELGWGDVVLDSAIAKVSIVGAGMVGQPGVAAKMFEALAKHQINIQMIATSEIKISCVVSQEQGVQALQVIHTAFELAGTEKFVVPAEGHHHHHH | not soluble
MSLANYIKDIREKVGHMPLIMVGVGAAYIKEEKVLLQERADTGGWGLPGGYMEYGESIEQTLKREFKEDAGLEIIDYKFLKNFDREFFKYPNGDQTQVLTPFYLVTKVKEGKPQFDPHETSRVDFFDFNDLPEIHFASHKRILTYLQDILEGHHHHHH | not soluble
MSLAPAQRAFSDWQVTCNNQNFCVARNTGDHNGLVMTLSRSAGAHTDAVLRIERGGLKSPDASEGEIAPRLLLDGEPLALSGDKWRISPWLLVTDDTATITAFLQMIQEGKAITLRDGNQTISLSDLKAALLFIDAQQKRVGSETAWIKKGDEPPLSVPPAPALKEVVVVNPTPTPLSLEERNDLLDYGNWRMNGLRCSLDPLRREVNVTALTDDKALMMISCEAGAYNTIDLAWIVSRKKPLASRPVRLRLPFNNGQETNELELMNATFDEKSRELVTLAKGRGLSDCGIQARWRFDGQRFRLVRYAAEPTCDNWHGPDAWPTLWITREGHHHHHH | soluble
MSLAPSNSLEICGDGVKNPTTFTRAQLEDMPQYQQVYSSINTWPSKKWYVGKGVHLSELLSLVGIKDDARLLKFTSQDGYTMTLTVKELLVDKRYYFPHFNDNKIGDGEGNIAGSSQGAELVEPIIALISVEGSNNPNYMNDLNTLVLMMGQRAVTEQTGNAFVKYLNKIEVLTSEVPKWDSPQANPGSGEVSAGTMIALSTARMDDDKIYYTTDGSTPNLNSPIYNWIAKRWWSARADILGTYNHPIGPINENTTIKAITIGPGKENSDVATFTYTVPVSKPASETSIVAPNEATNYPDQALEKPLQSEPKATLTDVQNHWAQKNINELIASGIAGGYPDSSFRPDNTITRAEFATMLVKAFNLQNQGGKVFADSEQHWAKEYISRATASGVVSGYDAENFGPDKLITREQMAVMISKAAKLVLKAEAMHFADSAGISEWAKEAVLAANQSGIVKGYPDNTIRPQGSATRAEAVTVIVNALTLKEGHHHHHH | soluble
MSLAQFVDWDLAAATAGTLGKTGPRVSYVEATAVVGDLRQLTDEAAEHVADFTGLRSQVSHPPVQVVDRRDWAATNVAGLREMIGPLVGRLAGDKQPSVLTEAIGSRITGVQAGTVLAYLSGRVLGQYEVFSGEPGQLLLIAPNIVEVERKLAADPRDFRMWVCLHEVTHRTQFTAVPWLRAYFLGEVQAFVDASSSGGEPLVERLRRGITVLADAVREPAGRTSVLDIVQTPAQKAVLDRLTALMTLLEGHAEFVMDGVGPQVIPSVERIRASFNRRRESGNPLEKALRRLLGVEVKLRQYAEGRSFVHGVVERVGMEGFNRVFASPLTLPRLAELSDPDAWVARVHGPAGPLPAGDEGHHHHHH | soluble
MSLARKNTATRQVIHIVGEGLTELFYFSHLKKILGYRYSISPRLFENNSIEKIEKKIKELLDEDVFVICVFDADVSRRSDAENKKMVSFKKKYENNPNVILCDSLQSIEYWFLLHFEDTCRHFQDSAATERALKQYLPTYDKTRKYLEKDKWVKEMLAGSKMDKACELAEKYKGRDSYSEIYKAIKKVSQNEGHHHHHH | soluble
MSLARRVGIYTRISRDDEGDALGVARQHRDCERLADLRSWQAVKVYEDNDVSAYKRHVVREQFELMLSDLGAGLIDGIVAYDLDRLARQPRDLERLIEIFDERPRLEFATVTNDVNLGTPDGRTMSRIMVAFANKSSHDASRRIKRKHLELAQQGKDSGGPAPYGWLKEDRSKVDPKAAAAIREAQREILAGVRIGTIRTRWQEQGLGNPRAGTKRMAHHHVEHILTSPRLVGYRTYHGEVLNDEDGRPVMGEWEAINTLEEWEAVCAAVAERKQKQPGRSLARKYMLSGIARCGLCKTKIRGQINQRWQPGSKATKFTYQCSVVNGGCGKVGRVGEPVDRLIAELALEEQRARAAATTVPIDQRWSRNAELEQVNDDITQLVNAERSKQITVTTLLQLLPGKERQRDELKLERARFYKELKQSEAKGDAANLTLDEFFGLPIERQQEIVLHRLSAVIIHPAGKGRRRFDPSLIEPVWREGHHHHHH | soluble
MSLASAIRICTKFSRLSLNSRSTSKSLIHCMSNVTADVPPVSETKSKFLKAYKRPIPSIYNTVLQELIVQQHLMRYKKTYRYDPVFALGFVTVYDQLMEGYPSDQDRDAIFKAYIEALNEDPKQYRIDAQKMEEWARSQTSASLVDFSSKEGDIEAVLKDIAGRAGSKEGFSYSRFFAVGLFRLLELASATDPTVLDKLCASLNINKKSVDRDLDVYRNLLSKLVQANELLKEYVEREKKKQEERAQSQKANETISKCLGDTLYNPSFLVERKSEGHHHHHH | soluble
MSLASLPGGASTLQETYQDWTVSCQSQKDTTACVMRQEQSSAQTGQRVLTAELRNVAGGKVDGVLLMPFGLDLAKGASLKIDDTAGPNLTFSTCLPQGCLAPVSFDAKQVAALKSGTNINVTTTALSPSQPVAFKISLKGFGAALDRIQALTKEGHHHHHH | soluble
MSLATIYDVSVLAGVSLATVSRVMNKNTNVSEKTKKKVQDAMDQLGYRPSSIAQSLASNRSNSIGVLVSQLDGPFYGPMMTEIETALRDANKHVIIAAGHSNETQEKEAVEFLLDRGCDALILDVEALSDEYIINLCQQSTPIVLINRFISEIEERCIYLNNALGGYLATKHVLSQGHTQLAYIAGPQFKSDARERLEGHKQALAEFEVTFDETLFFEGNFREPSGVSAMEYLLKQDKQFTCVISANDQMASGAIAVSLERDISVPKQLSFIGYDNSPFPKYISPKLSTVSNPIQEMGKMAALWVLKNVYNKPDLSIVNTFTPQLILRDSVKEGHHHHHH | soluble
MSLAVDTSGEFMRHLYIEEGRTVCASATSRNRRPTSESPHSDDVVVVEGMLRGRPETRVHAMFDGFQGRHSAMWLAQNVMNYLNDLRDVNEEEITRQFERMDGDLRAANLPGGSSALIIFVRYEKKPTEARVVGRQIVPEGAKEFTSVAEALGGPLMPVVAMNFRRDPRAAKGIYTIHVASLGNSRCVLKSGRTAIHLSTPHTASSHKERHRVQAAGGVFTTVNGELLLGGVVPMTRAFGSFDFKKGGQGKLQQDLVSAVPDVTTFFAYPGDDIVAGTAGAFAHFRSHAAIAAAIALYPVSPETVLDAAKAMVVNAKRRKVTKNISTFVRHLPESRTRSQKMLEGTSGENGEEDFSIDRTNELTQALQAGFFSFLLYYEGHHHHHH | soluble
MSLDCKIDIIPRVLHFKQPAGTSRGTYTTRKVWYLHFTAPEFPNWVGIGECAPLPNLSCDDLPDYEEVLAKICRQVENQGGKLDMEALCKYPSILFGLETAIRHFFEGSWALWDTPFSRGEAGIPINGLIWMGDFNRMLAQIEKKMEAGFRCIKLKIGAINFEEELALLQHIRSHYSSKEIELRVDANGAFSPTDAMEKLKRLSELDLHSIEQPIRAGQWEEMARLTSESPLPIALDEELIGYNTWEEKQRLLSAIRPQYIIIKPSLHGGLAGGEEWIAEAEKLNIGWWITSALESNIGLNAIAQWCATFQNPLPQGLGTGLLFTDNVEMPLEIRKDCLWFCKEGHHHHHH | soluble
MSLDDKATKPHDRLAQALAEDMAAVNALIRERMSSEHAPRIPEVTAHLIEAGGKRLRPMLTLAAARLVGYGGPFHVHLAATVEFIHTATLLHDDVVDESRQRRGRPTANLLWDNKSSVLVGDYLFARSFQLMTDTGNMRVMEILANASAVIAEGEVLQLTAAQNLATTEDIYLRVIRGKTAALFSAATEVGGIIGGAPEDQVQALFDYGDALGIAFQIVDDLLDYGGKSAEIGKNTGDDFRERKLTMPVIKAVALADEAERAFWKRVIEKGDQQDGDLEHAMALMTKHGTLEATRLAAIGWTDTARKALAKLPDHPLRQMLDDLADYVVERVREGHHHHHH | soluble
